According to US20200010567A1 (NEURIMMUNE, published 2020):

T1: (GR)15: H-C(GR)15-OH
T1 construct: synthetic, not coupled to BSA; also called poly-GR DPR protein peptide
T1 peptide: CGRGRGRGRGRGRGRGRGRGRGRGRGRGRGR

T2: (GP)15: H-C(GP)15-OH
T2 construct: synthetic, not coupled to BSA; also called poly-GP DPR protein peptide
T2 peptide: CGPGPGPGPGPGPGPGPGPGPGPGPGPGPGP

T3: (PR)15: H-C(PR)15-OH
T3 construct: synthetic, not coupled to BSA; also called poly-PR DPR protein peptide
T3 peptide: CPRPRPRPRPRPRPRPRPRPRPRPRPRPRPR

T4: (PA)15: H-C(PA)15-OH
T4 construct: synthetic, not coupled to BSA; also called poly-PA DPR protein peptide
T4 peptide: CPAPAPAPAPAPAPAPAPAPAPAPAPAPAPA

T5: GA20: H-(GA)20HHHHHH-NH2 (C-terminal amide)
T5 peptide: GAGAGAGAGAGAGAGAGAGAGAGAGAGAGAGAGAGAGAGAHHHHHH

T6: (GA)15: H-CHHHHHH(GA)15-OH
T6 construct: synthetic, not coupled to BSA; also called poly-GA DPR protein peptide
T6 peptide: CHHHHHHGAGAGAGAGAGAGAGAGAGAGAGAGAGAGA


What was measured:
(GR)15: H-C(GR)15-OH = biological target: T1, (GR)15: H-C(GR)15-OH; test: indirect ELISA, coated peptide
Description: (§1) In brief, dipeptide repeat proteins were synthesized and purified by Schafer-N(Copenhagen, Denmark): (GA)₁₅: H-CHHHHHH(GA)₁₅-OH; (GP)₁₅: H-C(GP)₁₅-OH; (GR)₁₅: H-C(GR)₁₅-OH; (PA)₁₅: H-C(PA)₁₅-OH; (PR)₁₅: H—C(PR)₁₅-OH. 96-well microplates (Corning Incorporated, Corning, USA) were coated with dipeptide repeat protein peptides at a concentration of either 5 μg/ml or 20 μg/ml in coating buffer (15 mM Na₂CO₃, 35 mM NaHCO₃, pH 9.42). Non-specific binding sites were blocked for 1 h at room temperature with PBS/0.1% Tween®-20 containing 2% BSA (Sigma-Aldrich, Buchs, Switzerland). Primary antibodies were diluted to the indicated concentrations and incubated for 1 h at room temperature, followed by incubation with a donkey anti-human IgG Fcγ-specific antibody conjugated with HRP (Jackson ImmunoResearch Laboratories, Inc., West Grove, USA). Binding was determined by measurement of HRP activity in a standard colorimetric assay. EC₅₀ values were estimated by non-linear regression using GraphPad Prism software (San Diego, USA). The binding specificity and EC₅₀ of human-derived antibodies for C9orf72 dipeptide repeat protein peptides (GA)₁₅, (GP)₁₅, (GR)₁₅, (PA)₁₅ and (PR)₁₅ were determined by indirect ELISA.

(GP)15: H-C(GP)15-OH = biological target: T2, (GP)15: H-C(GP)15-OH; test: indirect ELISA, coated peptide
Description: as §1

(PR)15: H-C(PR)15-OH = biological target: T3, (PR)15: H-C(PR)15-OH; test: indirect ELISA, coated peptide
Description: as §1

(PA)15: H-C(PA)15-OH = biological target: T4, (PA)15: H-C(PA)15-OH; test: indirect ELISA, coated peptide
Description: as §1

GA20: H-(GA)20HHHHHH-NH2 = biological target: T5, GA20: H-(GA)20HHHHHH-NH2; test: indirect ELISA, coated His-tagged peptide
Text: In brief, dipeptide repeat proteins were synthesized and purified by Schafer-N (Copenhagen, Denmark): GA₂₀: H-(GA)₂₀HHHHHH-NH₂; GA₁₀: H-(GA)₁₀HHHHHH-NH₂; GA₆: H-(GA)₆HHHHHH-NH₂; GA₅: H-(GA)₅HHHHHH-NH₂; GA₄: H-(GA)₄HHHHHH-NH₂; GA₃: H-(GA)₃HHHHHH-NH₂; GA₂: H-(GA)₂HHHHHH-NH₂; GP₂₀: H-(GP)₂₀HHHHHH-NH₂; GP₁₀: H-(GP)₁₀HHHHHH-NH₂; GP₆: H-(GP)₆HHHHHH-NH₂; GP₅: H-(GP)₅HHHHHH-NH₂; GP₄: H-(GP)₄HHHHHH-NH₂; GP₃: H-(GP)₃HHHHHH-NH₂; GP₂: H-(GP)₂HHHHHH-NH₂. GR₂₀: H-(GR)₂₀HHHHHH-NH₂; GR₁₀: H-(GR)₁₀HHHHHH-NH₂; GR₆: H-(GR)₆HHHHHH-NH₂; GR₅: H-(GR)₅HHHHHH-NH₂; GR₄: H-(GR)₄HHHHHH-NH₂; GR₃: H-(GR)₃HHHHHH-NH₂; GR₂: H-(GR)₂HHHHHH-NH₂; PA₂₀: H-(PA)₂₀HHHHHH-NH₂; PA₁₀: H-(PA)₁₀HHHHHH-NH₂; PA₆: H-(PA)₆HHHHHH-NH₂; PA₅: H-(PA)₅HHHHHH-NH₂; PA₄: H-(PA)₄HHHHHH-NH₂; PA₃: H-(PA)₃HHHHHH-NH₂; PA₂: H-(PA)₂HHHHHH-NH₂; PR₂₀: H-(PR)₂₀HHHHHH-NH₂; PR₁₀: H-(PR)₁₀HHHHHH-NH₂; PR₆: H-(PR)₆HHHHHH-NH₂; PR₅: H-(PR)₅HHHHHH-NH₂; PR₄: H-(PR)₄HHHHHH-NH₂; PR₃: H-(PR)₃HHHHHH-NH₂; PR₂: H-(PR)₂HHHHHH-NH₂. 96-well microplates (Corning Incorporated, Corning, USA) were coated with dipeptide repeat protein peptides at a concentration of 50 μg/ml in coating buffer (15 mM Na₂CO₃, 35 mM NaHCO₃, pH 9.42). Non-specific binding sites were blocked for 1 h at room temperature with PBS/0.1% Tween®-20 containing 2% BSA (Sigma-Aldrich, Buchs, Switzerland). Primary antibodies were diluted to the indicated concentrations and incubated 1 h at room temperature, followed by incubation with a donkey anti-human IgG Fcγ-specific antibody conjugated with HRP (Jackson ImmunoResearch Laboratories, Inc., West Grove, USA). Binding was determined by measurement of HRP activity in a standard colorimetric assay. EC₅₀ values were estimated by non-linear regression using GraphPad Prism software (San Diego, USA).

[1] = biological target: T7, full-length amyloid precursor protein (UniProt P05067 18-770, limits assumed); test: indirect ELISA, coated protein
T7 construct: also called flAPP
T7 sequence (P05067 18-770 limits assumed): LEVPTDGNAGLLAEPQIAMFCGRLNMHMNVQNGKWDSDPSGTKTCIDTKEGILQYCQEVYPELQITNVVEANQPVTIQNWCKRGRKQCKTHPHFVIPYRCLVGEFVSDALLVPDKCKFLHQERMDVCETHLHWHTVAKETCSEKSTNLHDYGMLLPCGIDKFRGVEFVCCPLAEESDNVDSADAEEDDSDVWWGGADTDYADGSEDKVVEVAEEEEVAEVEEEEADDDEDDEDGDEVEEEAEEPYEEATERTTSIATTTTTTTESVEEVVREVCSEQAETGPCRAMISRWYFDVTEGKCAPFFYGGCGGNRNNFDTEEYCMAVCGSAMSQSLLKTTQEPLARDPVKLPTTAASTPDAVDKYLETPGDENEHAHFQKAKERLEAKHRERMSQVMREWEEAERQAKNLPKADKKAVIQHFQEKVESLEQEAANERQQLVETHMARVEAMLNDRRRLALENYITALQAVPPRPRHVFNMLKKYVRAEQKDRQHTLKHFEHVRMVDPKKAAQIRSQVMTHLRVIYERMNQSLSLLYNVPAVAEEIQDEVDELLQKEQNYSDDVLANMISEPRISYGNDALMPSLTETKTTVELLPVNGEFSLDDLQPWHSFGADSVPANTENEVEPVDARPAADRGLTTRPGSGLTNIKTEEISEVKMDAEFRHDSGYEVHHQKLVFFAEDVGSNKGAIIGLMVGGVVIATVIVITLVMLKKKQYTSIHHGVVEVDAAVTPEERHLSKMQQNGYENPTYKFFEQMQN
Description: (§2) 96-well microplates (Corning) were coated with different target proteins at a concentration of 1-10 μg/ml in coating buffer (15 mM Na₂CO₃, 35 mM NaHCO₃, pH 9.42). Non-specific binding sites were blocked for 1 h at RT with PBS/0.1% Tween®-20 containing 2% BSA (Sigma-Aldrich, Buchs, Switzerland). […] Binding was determined using donkey anti-human IgG Fcγ-specific antibody conjugated with HRP (Jackson ImmunoResearch Laboratories, Inc., West Grove, USA) followed by measurement of HRP activity in a standard colorimetric assay. Signals for target protein were calculated in fold increase above median.

Tau = Tau (UniProt P10636-8 1-441, limits assumed); test: indirect ELISA, coated protein
Chain of Tau (P10636 other isoform, or with tags, fused parts or gaps limits assumed): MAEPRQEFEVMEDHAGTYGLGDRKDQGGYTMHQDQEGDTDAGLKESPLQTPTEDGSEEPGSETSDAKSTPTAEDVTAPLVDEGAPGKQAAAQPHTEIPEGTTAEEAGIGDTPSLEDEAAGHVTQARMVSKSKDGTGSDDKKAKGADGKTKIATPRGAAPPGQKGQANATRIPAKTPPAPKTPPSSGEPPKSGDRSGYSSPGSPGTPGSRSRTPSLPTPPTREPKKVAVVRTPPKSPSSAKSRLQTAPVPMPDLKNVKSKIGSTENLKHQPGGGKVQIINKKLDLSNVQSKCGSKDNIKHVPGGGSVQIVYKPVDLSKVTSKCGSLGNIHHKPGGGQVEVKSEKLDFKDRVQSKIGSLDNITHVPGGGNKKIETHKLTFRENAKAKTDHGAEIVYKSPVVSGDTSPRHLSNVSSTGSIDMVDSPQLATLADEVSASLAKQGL
Description: as §2

[2] = biological target: T8, transactive response DNA binding protein 43 (UniProt Q13148 1-414, limits assumed); test: indirect ELISA, coated protein
T8 construct: also called TDP-43
T8 sequence (Q13148 whole entry): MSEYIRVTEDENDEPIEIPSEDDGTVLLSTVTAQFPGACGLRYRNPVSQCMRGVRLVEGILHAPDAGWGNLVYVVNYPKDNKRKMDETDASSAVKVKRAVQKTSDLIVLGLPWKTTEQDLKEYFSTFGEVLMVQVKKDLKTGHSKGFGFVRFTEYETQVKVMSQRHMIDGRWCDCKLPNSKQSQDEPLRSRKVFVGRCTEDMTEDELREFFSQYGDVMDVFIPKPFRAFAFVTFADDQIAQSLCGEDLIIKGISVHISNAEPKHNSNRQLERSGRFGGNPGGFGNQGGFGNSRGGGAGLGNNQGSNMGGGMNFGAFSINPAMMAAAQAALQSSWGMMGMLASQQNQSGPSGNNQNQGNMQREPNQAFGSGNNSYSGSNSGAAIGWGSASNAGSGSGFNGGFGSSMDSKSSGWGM
Description: as §2

transthyrethin = transthyrethin (UniProt P02766 21-147); test: indirect ELISA, coated protein
Description: as §2

[3] = biological target: T6, (GA)15: H-CHHHHHH(GA)15-OH; test: indirect ELISA, coated uncoupled peptide
Description: as §1

Row | Binder | binding result ((GR)15: H-C(GR)15-OH) | binding result ((GP)15: H-C(GP)15-OH) | binding result ((PR)15: H-C(PR)15-OH) | binding result ((PA)15: H-C(PA)15-OH) | EC50 (GA20: H-(GA)20HHHHHH-NH2) | binding result [1] | binding result (Tau) | binding result [2] | binding result (transthyrethin) | EC50 [3]
1 | NI-308.4M1 (antibody, V domains shown, Recombinant complete human IgG1, kappa) VH: EVQLVETGGGVVQPGGSLRLSCEASGFTIGTYAMHWVRQFPGKGLDWVAVISFDGTTEYYTDAVKGRFTISRDNAKNTLYLQMNYLRGDDTAIYFCARDFTSSGETGSWTQVPDLWGQGTLVTVSS VL: CEIVMTQSPATLSLSPGERATLSCRASQSVTKYLAWYQQKPGQAPRLLIYDVSYRAAGTPARFSGSGSGTDFTLTISSLEPEDFAVYYCHQRSSWPPVTFGGGTKVEIK | no binding | no binding | no binding | – | – | – | – | – | – | –
2 | NI-308.46E9 (antibody, V domains shown, Recombinant complete human IgG1, kappa) VH: QVQLQESGPGLVKPSETLSLTCTVSGASISGSTYYWGWIRQPPGKGLEYIGRIYYSGSTYYNPSLKSRATISVDTSKNQLSLTLSSVTAADTAVYYCVRPFYAGSGNSPFDYWGQGTLVTVSS VL: CEIVLTQSPATVSVSPGERATLSCRASQSVSTNLAWYQQKPGQPPRLLIYGASTRATGIPARFSGSGSGAEFTLTISSLQSEDFVVYYCQQYNNWPPAFGGGTKVEIK | no binding | – | no binding | no binding | – | – | – | – | – | –
3 | NI-308.15O7 (antibody, V domains shown) VH: QVQLVESGGGVVQPGRSLRLSCAASGFTFSNHAMHWVRQAPGKGLEWVAVISYDGENTYYADSIEGRFTISRDNFKNTLFLQMYSLTADDTAMYFCARGGRRGHFTSYYLDYWGQGTLVTVSS VL: CDIQMTQSPSSLSASVGDRVTITCRASQNIDKYLNWYQQIPGKAPKLLIYAASSLHSGVPSRFSGSGSGTDFSLTISSLQPEDFAIYYCQQSYSSFRTFGQGTKLEIK | no binding | no binding | no binding | no binding | 0.54 nM | no binding (tested: 20 nM) | no binding (tested: 20 nM) | no binding (tested: 20 nM) | no binding (tested: 20 nM) | 0.48 nM
4 | NI-308.5G2 (antibody, V domains shown, Recombinant complete human IgG1, kappa) VH: EVQLVQSGADLRNPGASVTVSCTASGYHFADNAINWLRQAPGQRLEWMGWINIYSGNTKYSQNFQGRVTFTRNTSASTAFMHLRSLRSEDTAVYFCARDPDSSGYYLPYFDYWGQGTLVTVSS VL: DIQLTQSPDSLTLSLGERATINCKSSQSVFYNSNNKNYLAWYQQKPGQPPKLLMYWASTRESGVTDRFSGSGSGTDFTLTITNLQAEDVAVYYCQQFYSSPLTFGGGTKVEIK | no binding | – | no binding | no binding | 18.2 nM | no binding (tested: 20 nM) | no binding (tested: 20 nM) | no binding (tested: 20 nM) | no binding (tested: 20 nM) | ~15.3 nM
5 | NI-308.24E11 (antibody, V domains shown, Recombinant complete human IgG1, kappa) VH: QVQLQESGPGLVKPSETLSLTCTVSTTSLRSYFWSWIRQPPGKGLEWIGYVYYSGSTIYNPSLKNRVTISIDTSKNQFSLNLRSVTAADTAMYFCARGVPAETDARDFPPYYFDHWGQGTLVTVSS VL: CDIQLTQSPSSLSASVGNRITFTCQASQDIRYYLNWYQQKPGKAPKLLIYDVSNLDTGVPPRFSGSGSGTNFTFTISSLQPEDIAVYYCQQYEGLPVTFGGGTKVEIK | no binding | no binding | – | no binding | – | no binding (tested: 20 nM) | no binding (tested: 20 nM) | no binding (tested: 20 nM) | no binding (tested: 20 nM) | –
6 | NI-308.6B11 (antibody, V domains shown, Recombinant complete human IgG1, kappa) VH: EVQLVQSGAEVKRPGASVKVSCKVSGYTLTELSMHWVRQAPGKGLEWMGGFDPEDGETVYAQKFQGRVTMTEDTSTDTAYMELSSLRSEDTALYHCATYGSSWHWNEGNEGSYYFDYWGQGTLVTVSS VL: CDIQMTQSPSSLSASVGDRVTITCQASQDISIYLNWYQQKPGKAPKLLIYDASNLETGVPSRFSGSGSGTDFTFTISGLQPEDVARYYCQQYDDLPITFGQGTRLEIK | – | no binding | – | no binding | 33.6 nM | no binding (tested: 20 nM) | no binding (tested: 20 nM) | no binding (tested: 20 nM) | no binding (tested: 20 nM) | ~38.4 nM
7 | NI-308.45C2 (antibody, V domains shown, Recombinant complete human IgG1, kappa) VH: QLQLQESGPGLVKPSQILSLTCAISGDSVFSNSAAWNWIRQSPSRGLEWLGRTYYRSKWDNDYAPSVKSRISINPDTSKNQFSLQLNSVTPEDTAVYYCAREVAYCGGDCYSVSFDYWGQGTLVTVSS VL: not shown | no binding | no binding | no binding | no binding | 9.6 nM | no binding (tested: 20 nM) | no binding (tested: 20 nM) | no binding (tested: 20 nM) | no binding (tested: 20 nM) | –
8 | NI-308.28G1 (antibody, V domains shown, Recombinant complete human IgG1, kappa) VH: QVQLQESGPRLVKPSETLSLTCTVAGGSVNSYYWTWIQQSPGKGLEWLGRIYIAGRTNYNPSLTSRIALSVDTSRNQLSLKLTSVTAADTAIYYCARWGAESGDYYYGVDVWGPGTLVTVSS VL: EIVMTQSPLSLPVTPGEPASISCKSSEGLLHSNGYTYLDWYLQKPGQAPQLLIFLASNRAAGVPDRFSGSGSGTDFTLKISRVEAEDVGVYYCMQAIQSPWTFGPGTKVEIK | no binding | no binding | no binding | no binding | 1.1 nM | no binding (tested: 20 nM) | no binding (tested: 20 nM) | no binding (tested: 20 nM) | no binding (tested: 20 nM) | 1.1 nM
